From the supplement of paper PMC10567573
± gives the standard deviation.

Experiment: protein stability index of a GFP-peptide fusion (GPS, HEK-293T) (PSI 1-6); higher = more stable
Settings: c terminus: a fixed tail appended
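Further: 24-mer peptide tiles fused after GFP, lentivirally expressed, FACS-sorted into six equal bins by GFP/DsRed ratio, decoded by Illumina sequencing, PSI is the read-weighted mean bin number.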

Sequence | protein stability index (treatment: DMSO) | protein stability index (treatment: MLN4924 1 uM, 8 h)
DIEQFFNIGDSSSGLIQTVFISSY [SPNS1] | 2.68 ± 0.39 | 2.66 ± 0.8
SNFDDFPESDILQPVPNTTEPDYK [STK38L] | 5.59 ± 0.25 | 5.24 ± 0.29
RTTVFQYPVGWPPVQELPPSLRAP [ZMAT5] | 2.8 ± 0.17 | 2.79 ± 0.29
LLWRKQLFCDVTLTAQGQQFHCHK [KLHL14] | 2.23 ± 0.41 | 1.99 ± 0.23
AAYSSILSSLGENPQRQGLLKTPW [GCH1] | 2.54 ± 0.22 | 2.55 ± 0.29
PQLAGKWQVLCMLSLCCWGWVSGQ [PCDHGC5] | 2.88 ± 0.93 | 2.85 ± 0.43
KRRRSVTPPEEQQEAEEPKARVLR [CDC25B] | 5.32 ± 0.24 | 5.67 ± 0.21
QGSRHWQKLREESAARVVLTSLLA [DUSP5] | 2.31 ± 0.25 | 2.44 ± 0.24
SHKRKRSSGSFCYCHPDSETDEDE [GMCL1] | 5.21 ± 0.4 | 5.34 ± 0.2
NRLSIGLQSLDDTELRLLGRTHSA [RSAD1] | 3.77 ± 0.22 | 3.79 ± 0.28
PAMRNSPTFKSFEERVETTVTSLK [TPD52L1] | 4.61 ± 0.13 | 4.42 ± 0.2
IAKELSKTYQETPEIDMFLNVATF [ZBED1] | 2.07 ± 0.24 | 2.12 ± 0.16
TRVPRAAIVFTDGRAQDDVSEWAS [MATN2] | 4.34 ± 0.36 | 4.48 ± 0.45
ILSFTVIMVGFILYCSTPTRTAEP [SLC35F2] | 3.27 ± 0.65 | 2.77 ± 0.53
NEQVLTTEHEKKQKLETDAMFRLE [YJU2B] | 5.43 ± 0.15 | 5.43 ± 0.19
VHYAKVQLRFQHSQDVSDCYLELF [PLEKHN1] | 2.88 ± 0.82 | 2.76 ± 0.52
RQLLCLIDYYESKIRKIHTQRQYK [CEP70] | 2.44 ± 0.37 | 2.95 ± 0.25
SSSSSSSSSSSSSSSSGPGHGEPD [TMEM40] | 5.49 ± 0.36 | 5.4 ± 0.35
VPVVTPTASTAPPVPATAPSPAPA [SNAP91] | 4.98 ± 0.17 | 5.05 ± 0.11
EEFNVLEMEVMRRQLYAVNRRLRA [FATE1] | 2.92 ± 0.21 | 3.1 ± 0.5
THQHWQQFEPQLTLWDVFGANKEV [RSAD1] | 2.65 ± 0.34 | 2.66 ± 0.24
PTTSHRLSRHDKAVQRFCLIGSLS [NETO1] | 2.28 ± 0.23 | 2.45 ± 0.48
SWYHWKGFEFSVPFTEMKLRPRNF [TNXB] | 2.47 ± 0.81 | 3.15 ± 0.53

Sequence | protein stability index (treatment: DMSO) | protein stability index (treatment: MLN4924 1 uM, 8 h)
PSDLDSTGNSLNEPEEPSEIPERR [DLC1] | 5.64 ± 0.21 | 5.62 ± 0.23
VAVQEQEIARREKELEARVRKPAE [FLOT1] | 5.44 ± 0.42 | 5.31 ± 0.17
MHLKPYWKLQKKEHPPEVSRETQR [FBXO34] | 3.58 ± 0.18 | 3.78 ± 0.33
QSDTLEQREEHELVHVMERSLSPS [RAD54B] | 5.45 ± 0.26 | 5.33 ± 0.23
TGEFLKLPFERLAFVLSSNSLKHC [KLHL13] | 2.55 ± 0.73 | 2.85 ± 0.52
LHRTFDPHFLRVPCWKITLFVIVP [MOG] | 3.17 ± 0.56 | 3.08 ± 0.63
DPGQQFTWEHSNLEVNKPKNRYAN [PTPRD] | 4.99 ± 0.39 | 4.98 ± 0.26
MERPLCSHLCSCLAMLALLSPLSL [LOXL2] | 3.16 ± 0.19 | 3.46 ± 0.36
VSLHDRIYVIGGYDGRSRLSSVEC [KLHL12] | 1.96 ± 0.16 | 2.19 ± 0.17
AILEMKWKVRAEKEACQREKELPA [ZBED2] | 3.47 ± 0.29 | 3.56 ± 0.55
RRGSWRLPYTDGLSWELLDSHLGG [CTBP1-DT] | 2.09 ± 0.09 | 2.66 ± 0.26
PGPGDDLCSDLEEAPEAELSQAPA [HES6] | 5.44 ± 0.23 | 5.43 ± 0.35
PFREILCKKLHIPLKAQNDLDISR [P2RY14] | 2.39 ± 0.12 | 2.46 ± 0.29
APEYRGRTELLKDAIGEGKVTLRI [MOG] | 2.59 ± 0.2 | 2.72 ± 0.38
EEELIRIFQEQQKKWQQYRSVRRE [FAM9B] | 3.92 ± 0.33 | 4.07 ± 0.49
IVVGRLKVALEPQLWELGKVLRKA [LPCAT4] | 2.31 ± 0.37 | 2.61 ± 0.49
YQELLGLSFEQMTDAHVWNKSVTL [NLN] | 2.37 ± 0.093 | 2.3 ± 0.28
CKAFSTCVSHLIIVTVHYGCASFI [OR10K2] | 2.88 ± 0.54 | 3.01 ± 0.57
TYEVRMRTNLPIFKLKESCVRRRY [SNX12] | 2.6 ± 0.15 | 2.54 ± 0.23
SAGGHGGLLNDTSAPHLENSGHTI [KCNA4] | 4.21 ± 0.46 | 4.48 ± 0.2
GDEMTSLSEYVSRMKETQKSIYYI [HSP90AB1] | – | 2.81 ± 0.3
KPSVDTEGPALVEIDRSVENTLLN [MIA2] | 4.99 ± 0.23 | 5.07 ± 0.26
